For data set [1], the system named is MS2 coat protein. The experiment in a line: apparent KD of MS2 coat protein, switch ON state; designed switch direction (-1 OFF switch, 1 ON switch): 1; higher = weaker reporter binding. The following applies: FMN input: 0 or 200 uM; Eterna round: R93 (includes R88 designs). In short, it runs like this:
(§1)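 Illumina sequencing clusters served as templates for on-chip transcription of the designed RNA switches. SNAP-549-labelled MS2 coat protein was then titrated in twofold steps from 0.7 or 1.5 nM to 3 µM, allowing 0.8–1.5 h per step at first and 10–20 min per step later. The buffer held 100 mM Tris-HCl pH 7.5, 80 mM KCl and 4 mM MgCl2, without or with constant ligand. Apparent KD is the median per design of normalised cluster binding-curve fits.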

The subject of data set [2] is MS2 coat protein. Briefly: apparent KD of MS2 coat protein, switch OFF state (with FMN for OFF switches, without FMN for ON switches); designed switch direction (-1 OFF switch, 1 ON switch): 1; higher = weaker reporter binding. The settings on record: FMN input: 0 or 200 uM; Eterna round: R93 (includes R88 designs). Put shortly:
as §1

As to “AGAAUAAAAAGAGAGGAUAUCCAUAAGAAAACAUGAGGAUCACCCAUGUGAAAGAUAAUAAGAUGGGAGAAGGCUCAAAAUAAGA [Topaz 46]”, the “apparent KD of MS2 coat protein” value amounted to 0.0203 µM in data set [1] and 0.0495 µM in data set [2].

Regarding “AGCACGCGAUUGGAGGAUAUGUUGUUUGCAACAUGAGGAUCACCCAUGUCUGAGGCUGAAAAGCAGCAGAAGGCCGAUACAACCA [SS2-1.1]”, the “apparent KD of MS2 coat protein” value in data set [1] was 0.0306 µM; in data set [2] it was 0.113 µM.

Take “AGGAAACAUGAGGAUCACCCAUGUAAAAAAUAGGGAGGAUAUACUAGAAGAAACAAAAUAGUAGAAGGCUCAAAAA [75%, Ex sub1, 25]”: the results for the “apparent KD of MS2 coat protein” value in data set [1] and in data set [2] were 0.0129 µM and 0.03 µM, respectively.

Consider “AGGAAACAUGAGGAUCACCCAUGUAAAAAAUAGGGAGGAUAUGGAAACACGAAAGUGAAACCAGAAGGCUCAAAAA [77%, Mat - Mod of Eli, 23]”, for which the “apparent KD of MS2 coat protein” value was determined as 0.0138 µM in data set [1] and 0.0182 µM in data set [2].

For the sequence “AGGAAACAUGAGGAUCACCCAUGUAAAAAUAUGGGAGGAUAUACAAACAAGAAAGUCAAAGUAGAAGGCCUAAAAG [Garnet 6]”, the entries for the “apparent KD of MS2 coat protein” value in data set [1] and in data set [2] were 0.0637 µM and 0.152 µM, respectively.

Consider “AGGAAACAUGAGGAUCACCCAUGUAAAAAUAUGGGAGGAUAUACAAACAAGAAAGUCAGAGUAGAAGGCCUAAAAG [Garnet 7]”, for which the “apparent KD of MS2 coat protein” value in data set [1] was determined as 0.0737 µM; in data set [2] it was 0.145 µM.

With “AGGAAACAUGAGGAUCACCCAUGUAAAAAUAUGGGAGGAUAUACGAAGACGAAAGUAAAAGUAGAAGGCCUAAAAG [Garnet 15]”, the “apparent KD of MS2 coat protein” value in data set [1] was determined as 0.0318 µM; in data set [2], 0.108 µM.

Consider “AGGAAACAUGAGGAUCACCCAUGUAAAAAUAUGGGAGGAUAUUGGAAUAAAAUAAAGAACCGAGAAGGCCUAAAAA [59%, Flamingo, 6]”, for which the figures for the “apparent KD of MS2 coat protein” value in data set [1] and in data set [2] were 0.0323 µM and 0.219 µM, respectively.

On to “AGGAAACAUGAGGAUCACCCAUGUAAAGAUGGGCGAGGAUAUCGAAAGAAAAGAAAGAAACGAGAAGGCGCAAAAG [Flamingo]”, for which the “apparent KD of MS2 coat protein” value in data set [1] amounted to 0.0437 µM; in data set [2], 0.24 µM.

Take “AGGAAACAUGAGGAUCACCCAUGUAAGAUAAACUUAGGAUAUGCGAAAAGAAACAAAGAAGCAGAAGGAGGGAGAA [75%, Ex5 sub 1, 2]”: the “apparent KD of MS2 coat protein” value in data set [1] amounted to 0.0165 µM; in data set [2], 0.033 µM.

With “AGGAAACAUGAGGAUCACCCAUGUAUAAAAAAUACAGGAUAUGGAAACACGAAAGUGAAACCAGAAGGGUAAAAAA [77%, Mat - Mod of Eli, 32]”, the “apparent KD of MS2 coat protein” value in data set [1] turned out to be 0.0159 µM; in data set [2], 0.0399 µM.

Turning to “AGGAGACAUGAGGAUCACCCAUGUGAGAAGAGGCGAGGAUAUCGAAAGAAAGAAGAGAAACGAGAAGGCGCGAGCU [salish99-SS1-024]”, the figures for the “apparent KD of MS2 coat protein” value in data set [1] and in data set [2] were 0.0244 µM and 0.0296 µM, respectively.

Turning to “AGGAGACAUGAGGAUCACCCAUGUGAGAAGAGGCGAGGAUAUCGAAAGAAAGAAGAGAAACGAGAAGGCGCGAGGU [salish99-SS1-023]”, the “apparent KD of MS2 coat protein” value in data set [1] was found to be 0.0236 µM; in data set [2], 0.0367 µM.

Consider “AGGAGACAUGAGGAUCACCCAUGUGCACGUGGAGGAGGAUAUGCUAGUAGAAGAUAGAAAGCAGAAGGCCUAAGAA [mod of top voted: #2]”, for which the “apparent KD of MS2 coat protein” value was 0.0443 µM in data set [1] and 0.0372 µM in data set [2].

For the sequence “AGGAGACAUGAGGAUCACCCAUGUGCACGUGGAGGAGGAUAUGCUAGUAGAAGAUAGAAUGCAGAAGGCCUAAGAA [JR_SameState1_Sub3]”, the entries for the “apparent KD of MS2 coat protein” value in data set [1] and in data set [2] were 0.0428 µM and 0.0353 µM, respectively.

Regarding “AUAAAACAUGAGGAUCACCCAUGUAGACAUAUGGGAGGAUAUACUAGAUCGAAAGAUCUAGUAGAAGGUCUUUAAA [JL Mod of Eli 9]”, the “apparent KD of MS2 coat protein” value in data set [1] stood at 0.297 µM; in data set [2], 0.257 µM.

“AUAAAACAUGAGGAUCACCCAUGUAGCUAAAGCACAGGAUAUAGGAGUCCGAGCAGACAUCUAGAAGGGUGGAAAA [Veeslelein]”: the “apparent KD of MS2 coat protein” value in data set [1] came out at 0.0575 µM; in data set [2] it was 0.0886 µM.

“AUAAAAGAAGCGAAGGAUAUCCAACUCAAAACAUGAGGAUCACCCAUGUAAAGAAAUAAAAAAUGGGAGAAGGUCGCAAAGAAUA [73%, More Fisker Same State 2, D3, 14]”: the “apparent KD of MS2 coat protein” value in data set [1] is 0.582 µM; in data set [2] it was 0.0401 µM.

Turning to “AUAAGACAUGAGGAUCACCCAUGUAUAAGAGCAUGAGGAUAUAUGAAAAGUAAUAGGAGAAUAGAAGGCAUAGUUG [JR_SS001_Sub1220]”, the results for the “apparent KD of MS2 coat protein” value in data set [1] and in data set [2] were 0.0807 µM and 0.0924 µM, respectively.

In the case of “AUAAUAUUAAGCAAGGAUAUACUAAAGUAAACAUGAGGAUCACCCAUGUGAAAAAAAAAACUCAUGUAGAAGGUGCAUAAAUAAA [moonwalk 11]”, the “apparent KD of MS2 coat protein” value in data set [1] was determined as 0.0239 µM; in data set [2], 0.05 µM.

Consider “AUACUACAUGAGGAUCACCCAUGUUGAAAUAUGGAAGGAUAUACGUAGUAAAAUAACUACGUAGAAGGUCCAGAAA [SS1 MT 22]”, for which the “apparent KD of MS2 coat protein” value stood at 0.0187 µM in data set [1] and 0.0196 µM in data set [2].

Turning to “AUAGAACAUGAGGAUCACCCAUGUAAAAAAGCAUGAGGAUAUAUAAGUAAAUAAAAUAAGAUAGAAGGCAUGAUAA [JR_SS001_Sub1701]”, the “apparent KD of MS2 coat protein” value is 0.052 µM in data set [1] and 0.0914 µM in data set [2].

With “AUAGACAUAGUUCAGGAUAUGGUAAUAGUCACAUGAGGAUCACCCAUGUGCAUUUAUAUGCGCGAUCAGAAGGGAGGUAGAUAUA [Mat - Same state - Malcolm Mod - D117]”, the “apparent KD of MS2 coat protein” value amounted to 0.0177 µM in data set [1] and 0.0163 µM in data set [2].

Consider “AUAUAUAUAAGGUAGGAUAUCCUAAAGUAAACAUGAGGAUCACCCAUGUAAAGAAAGAAACUCAUGGAGAAGGACCAUAUAUAUA”, for which the “apparent KD of MS2 coat protein” value is 0.0155 µM in data set [1] and 0.0202 µM in data set [2].

Take “AUAUGAUCAUGUGAGGAUAUCCAUAAUAAAACAUGAGGAUCACCCAUGUAUAGAUACUAAUAAUGGGAGAAGGCACAUGAUCAAU [SS 2 M43]”: the “apparent KD of MS2 coat protein” value was 0.0199 µM in data set [1] and 0.024 µM in data set [2].

As for “AUGGUCAAGUGUGAGGAUAUCCAGGCUCCCACAUGAGGAUCACCCAUGUUUUAAAGAGCGUAAAGGGAGAAGGUACGAACGCCAC [Isorvere]”, the figures for the “apparent KD of MS2 coat protein” value in data set [1] and in data set [2] were 0.0154 µM and 0.0219 µM, respectively.

As for “AUUCCAAAUAGUCAGGAUAUCAGGAGUAAGACAUGAGGAUCACCCAUGUACUUAGUAAAAGUAACUGAGAAGGGACAGGGUGUAA [JR_SS002_Sub406]”, the “apparent KD of MS2 coat protein” value in data set [1] is 0.03 µM; in data set [2], 0.0242 µM.

For the sequence “AUUUUACAUGAGGAUCACCCAUGUUUUGGUGGAUCAGGAUAUAGAUUGAAUGAGUUUUAGCUAGAAGGGAUAUAUA [JR_SS001_Sub506]”, the “apparent KD of MS2 coat protein” value in data set [1] amounted to 0.111 µM; in data set [2], 0.11 µM.

In the case of “CACCCGUGUAUGAAGGAUAUGUAGACCCUGACAUGAGGAUCACCCAUGUAACUGUGGGUCCCAUCGCAGAAGGUCGAGACACGGG [Ribitite]”, the results for the “apparent KD of MS2 coat protein” value in data set [1] and in data set [2] were 0.0224 µM and 0.18 µM, respectively.

“CAGCGCUGUCGAGAGGAUAUGCGGUGAUGGACAUGAGGAUCACCCAUGUAAGCGAUAGCAUUACGGCAGAAGGCUCUGCAGCUGC [Riaranzaes]”: the “apparent KD of MS2 coat protein” value in data set [1] was determined as 0.0187 µM; in data set [2], 0.0696 µM.

As for “CGAAAGGAGAGAGAGGAUAUCCAAAGGAAAACAUGAGGAUCACCCAUGUAGAAGGUAGGAGAUUGGGAGAAGGCUCAAGACAGAG [salish99-ss2-143(!!!!)]”, the “apparent KD of MS2 coat protein” value came out at 0.0213 µM in data set [1] and 0.0361 µM in data set [2].

Take “CGAAAGGAGAGAGAGGAUAUCCAAAGGAAAACAUGAGGAUCACCCAUGUAGAAGGUAGGAGAUUGGGAGAAGGCUCAAGAGAGAA [salish99-ss2-146]”: the figures for the “apparent KD of MS2 coat protein” value in data set [1] and in data set [2] were 0.0191 µM and 0.025 µM, respectively.

Turning to “CGAAGACAUGAGGAUCACCCAUGUGGGAAUAUGGGAGGAUAUACAAAGACGAGAGUCAGAGUAGAAGGCCUAGGAA [salish99-ss1-104]”, the “apparent KD of MS2 coat protein” value amounted to 0.0233 µM in data set [1] and 0.0566 µM in data set [2].

For “CGCGGGCCCGGGCAGGAUAUCCGGCCUCGGACAUGAGGAUCACCCAUGUGGCCGAAAGGCCGGUGGGAGAAGGGCCCGGGCCCGC”, the “apparent KD of MS2 coat protein” value in data set [1] came out at 0.0205 µM; in data set [2] it was 0.0231 µM.

With “CGCUCACAUGAGGAUCACCCAUGUCCUAGGAGGUCAGGAUAUAGCUCGGAUGCGUUGAGGCUAGAAGGGACAGGUG [JR_SS001_Sub606]”, the entries for the “apparent KD of MS2 coat protein” value in data set [1] and in data set [2] were 0.0786 µM and 0.0595 µM, respectively.

For the sequence “CGGAAGGAGAGAGAGGAUAUCCAAAGGAAAACAUGAGGAUCACCCAUGUAGAAGGUAGGAAAUUGGGAGAAGGCUCAACAGAGAG [salish99-ss2-130]”, the “apparent KD of MS2 coat protein” value in data set [1] was 0.0191 µM; in data set [2] it was 0.0334 µM.

“CGGAGACAUGAGGAUCACCCAUGUGAGAAGAGGCGAGGAUAUCGAAAGAAAGAAGAGAAACGAGAAGGCGCGAGAC [salish99-SS1-077]”: the “apparent KD of MS2 coat protein” value is 0.0177 µM in data set [1] and 0.0267 µM in data set [2].

Regarding “CGGAGACAUGAGGAUCACCCAUGUGAGAAGAGGCGAGGAUAUCGAAAGAAAGAAGAGAAACGAGAAGGCGCGAGGG [salish99-SS1-075]”, the “apparent KD of MS2 coat protein” value worked out at 0.0183 µM in data set [1] and 0.0277 µM in data set [2].

In the case of “CGUCUACAUGAGGAUCACCCAUGUCAAGAGUGGUCAGGAUAUGGUAUUAGAUGAGUAUGGCCAGAAGGGACAUAAG [JR_SS001_Sub715]”, the “apparent KD of MS2 coat protein” value in data set [1] was 0.167 µM; in data set [2] it was 0.386 µM.

In the case of “CGUGAACAUGAGGAUCACCCAUGUAGCGGGAGACAAGGAUAUGGGAGGCGAAAUCGCGGAUCAGAAGGUGUAAGCG [Zace]”, the entries for the “apparent KD of MS2 coat protein” value in data set [1] and in data set [2] were 0.0164 µM and 0.0165 µM, respectively.

The record behind these values is the supplement of paper PMC9170038.
